Reference: the supplement of paper PMC10567573

B1: CDC25A (parent)
chain: KPIVPTDGKRVIVVFHCEFSSERG
B2: SOAT2 (parent)
chain: SLGKQKVFIIRKSLLDELMEVQHF

Variants of: B1
Assay: protein stability index of a GFP-peptide fusion (GPS, HEK-293T) (PSI 1-6); higher = more stable
Conditions: c terminus: a fixed tail appended
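Note: lentivirally expressed fusions sorted by FACS into six bins by GFP to DsRed ratio, PSI derived from sequencing read proportions per bin multiplied by bin number.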

Protein stability index of substitutions, site by site:
S20: L 2.5; A 1.96; M 2.43; K 2.76; V 1.7; N 1.95; E 1.12; F 3.29; Y 2.42; R 3.53; H 2.8; P 1.92; C 2.23; W 2.1; T 2.79; Q 1.71; G 2.51; D 1.68; I 3.13
S21: M 2.22; E 1.56; R 1.2; K 1.9; T 3.26; V 2.61; F 1.97; C 3.38; H 2.27; I 1.42; N 2.46; L 3.4; A 2.27; D 1.28; P 4.03
G24: D 2.09; Q 3.67; W 3.51; N 2.29; A 1.29; P 2.66; M 3.17; I 4.86; C 2.7; V 2.56; K 1.44; L 1.85; Y 2.74; S 2.92; T 3.03; H 3.36; R 3.92; E 1.93
E18: W 2.46; V 3.1; Y 2.26
R23: K 2.67; T 3.36; Q 2.61; L 2.44; V 3.12; I 3.36; P 2.35; G 1.6; D 2.52; H 1.84; Y 2.99; S 2.19; M 2.92; E 2.14; F 3.05; C 2.82; N 3.72; W 1.55
E22: H 2.7; A 2.39; W 2.99; C 2.52; G 1.99; M 2.29; R 2.68; I 2.65; S 3.61; T 2.75; V 2.03; D 2.61; F 3.5; N 2.29; Y 3.49; L 3.4; Q 1.96; K 1.99; P 2.64
F19: M 2.05; P 1.8; S 2.27; T 2.1; R 2.22; D 2.41; L 2.32; Y 1.89; Q 2.3; V 2.19; C 1.98; E 2.47; N 2; H 1.86; A 1.71; W 1.86; K 2.18; I 1.65; G 2.15

Variants of: B2
Assay: as above
Conditions: c terminus: a fixed tail appended

Protein stability index: each site, then its substitutions
K4: Y 2.8; V 2.8; W 2.19; N 1.78; R 2.29; L 2.54; E 1.52; D 1.91; P 1.74; I 2.17; Q 1.96; S 2.25; C 2.88; A 1.55; M 2.15; H 2.31; F 2.22; T 2.4
L2: H 3.11; D 1.4; N 2.58; Y 2.69; C 3.02; M 2.25; V 3.51; F 3.72; S 3.5; E 1.75; K 1.44; A 2.94; Q 2.21; R 2.42; T 3.3
K6: R 2.74; V 1.81; T 3.25; M 3.33; E 2.05; G 1.99; F 2.71; L 2.24; W 2.47; A 2.08; H 1.97; C 3.68; S 2.46; P 1.96; N 1.6; D 1.67; Y 2.67; Q 2.98; I 3.06
S13: G 1.33; C 2.25; H 2.48; D 3.49; A 1.43; I 3.3; E 2.55; F 3.49
Q5: T 2.23; N 2.51; P 2.87; G 3.96; I 2.44; W 2.93; M 3.06; Y 1.85; C 2.75; H 2.05; R 3.01; A 2.54; S 2.73; L 3.31; F 3.55; K 2.63; E 2.04; V 2.91; D 2.01
I9: F 2.41; P 2.1; R 1.8; T 1.84; V 2.84; D 2.18; L 1.21; N 2.02; G 1.79; W 3.62; C 1.76; A 1.99; S 2.15; Y 2.85; K 1.58; Q 1.89; H 2.22; M 2.21; E 1.76
F8: H 1.71; E 2.58; V 1.6; N 1.5; C 2.49; G 1.93; A 1.76; L 2.02; M 1.58; D 2.12; T 1.32; W 2.79; I 2.15; S 2.03; K 1.88; Y 3.07; R 2.36; P 1.66; Q 1.97
G3: P 1.76; K 1.74; W 2.5; Y 2.76; H 3.41; A 2.12; E 1.94; M 3.27; R 2.98; F 2.29; C 3.08; T 2.83; V 2.97; D 2.12; S 2.73; N 2.07; L 2.29; I 3.27
R11: M 1.53; D 2.22; C 2.61; G 3.02; I 2.78; T 2.61; W 2.53; L 2.96; V 2.19; Q 2.54; A 2.83; P 1.78; Y 3.21; E 2.99; S 2.11; K 1.77; H 2.43; F 1.78
V7: H 1.59; I 3.05; K 2; E 1.67; L 3.44; W 2.34; S 1.74; F 2.56; T 2.16; C 2.4; Y 2.33; G 1.82; P 1.49; Q 1.82; A 1.72; M 1.82; N 1.92; D 1.48; R 2.16
I10: C 2.69; S 1.8; D 2.41; R 1.69; W 1.89; G 1.91; H 1.65; M 3.04; E 1.47; F 3.02; Q 1.87; T 1.98; V 2.52; Y 1.48; P 2.08; A 1.9; L 2.38; K 1.48; N 1.72
K12: M 2.13; Q 2.96; F 3.49; I 2.77; H 3.61; L 2.18; T 3.09; E 2.99; P 1.62; W 3.49; N 2.32; S 1.23; A 2.44; V 3.02; R 2.75; D 3.43
S1: Y 1.34; K 2.94; E 2.99; A 2.41; M 2.1; C 2.9; F 1.92; R 1.94; P 2.99; N 2.68; I 3.6; Q 2.6; T 4.03; L 3.27; H 2; V 2
